Article PMC2428073, “Architecture of a Serine Recombinase-DNA Regulatory Complex” (Molecular Cell, 2008)
Values joined by “and” are separate entries in the source; they are usually repeats but may differ in a detail not shown here. Equal entries are not always repeated.

B1: Sin res site II 29 bp duplex (dsDNA)
DNA 1: AACGTATGATTAGGGTGTATATTAATTTATA
DNA 2: TAAATTAATATACACCCTAATCATACGTTTA
modifications: 5-Br-dU and iodine-labelled versions used for phasing
B2: Wild-type His6-tagged pI9789 Sin (enzyme, S. aureus, UniProt P20384 1-202, looked up)
chain: MIIGYARVSSLDQNLERQLENLKTFGAEKIFTEKQSGKSIENRPILQKALNFVRMGDRFIVESIDRLGRNYNEVIHTVNYLKDKEVQLMITSLPMMNEVIGNPLLDKFMKDLIIQILAMVSEQERNESKRRQAQGIQVAKEKGVYKGRPLLYSPNAKDPQKRVIYHRVVEMLEEGQAISKIAKEVNITRQTVYRIKHDNGLS
notes: Sin resolvase (serine recombinase family) encoded by S. aureus plasmid pI9789; the crystal holds 836 Sin residues in four monomers (209 each, with the tag); The last nine residues, which contain the His6 tag, are not seen in the model; In the in vivo synapsis assay WT Sin was expressed from pSA9944 (also with a C-terminal His6 tag) in E. coli DS941; also called WT Sin; Sin resolvase; source: E. …

What was measured:
[1] = molecular target: T1, Sin recombinase (pI9789 Sin) (Staphylococcus aureus (multiresistance …, UniProt P20384 1-202)); assay: X-ray crystallography (MAD/SIRAS, 3.21 A); Crystal structure; protein stored in 25 mM Tris pH 7.5, 0.5 mM EDTA, 400 mM (NH4)2SO4, 20% glycerol; DNA annealed in 100 mM NaCl; crystallization conditions not in the material; settings: protein: recombinant; tags: His6 (C-terminal); chain copies: 2; overhanging AT dinucleotides pairing with adjacent duplexes
T1 sequence: B2 chain

[2] = molecular target: the molecule itself; assay: crystal structure; WT Sin cocrystallized with a 29 bp site II DNA duplex (2:1.25 molar ratio), hanging drop, 25 mM TRIS pH 7.5, (NH4)2SO4; two DNA-bound Sin dimers per asymmetric unit; 3.21 Å

Row | Binder | binding result [1] | stoichiometry N [2]
1 | B1 | binds | 
2 | B2 |  | 2 and 4
